Data on 16 variants can be found in FireProtDB (doi:10.1016/j.jmb.2004.06.010).

Where “and” joins values, the source holds several entries; their conditions need not be identical. Identical values can stand only once.

First the molecules themselves.
B1: Alpha-lactalbumin, P00712 (parent)
chain: MMSFVSLLLVGILFHATQAEQLTKCEVFQKLKDLKDYGGVSLPEWVCTAFHTSGYDTQAIVQNNDSTEYGLFQINNKIWCKDDQNPHSRNICNISCDKFLDDDLTDDIVCAKKILDKVGINYWLAHKALCSEKLDQWLCEKL

Variants of B1 are the subject of this series. The settings on record: Capra hircus, pH 7, 25 °C, GdnHCl, CD, sodium cacodylate 50 mM, NaCl 50 mM, structure 1HFY, whole UniProt chain shown.

In the case of MMSFVSLLLVGILFHATQAEQLTKCEVFQKLKDLKDYGGVSLPEWVCTAFHTSGYDTQAIVQNNDSTEYGLFQINNKIWCKDDQNPHSRNICNISCDKFLDDDLTDDIVCAKKILDKVGINYWAAHKALCSEKLDQWLCEKL [L124A], for the setting “transition: 3”, the denaturant m value was 2 kcal/mol/M and 0.74 kcal/mol/M; the “denaturant midpoint (higher = more stable)” value (“denaturant midpoint” below) is 2.55 M and 1.22 M.
Regarding MMSFVSLLLVGILFHATQAEQLTKCEVFQKLKDLKDYGGVSLPEWVCTAFHTSGYDTQAIVQNNDSTEYGAFQINNKIWCKDDQNPHSRNICNISCDKFLDDDLTDDIVCAKKILDKVGINYWLAHKALCSEKLDQWLCEKL [L71A], the denaturant m value worked out at 2.03 kcal/mol/M, the “denaturant midpoint” value amounted to 1.15 M and the unfolding free energy was 2.34 kcal/mol. Where the note is “transition: 3”, the denaturant m value was 1.52 kcal/mol/M and 0.51 kcal/mol/M; the “denaturant midpoint” value is 1.16 M and 1.13 M.
For the variant MMSFVSLLLVGILFHATQAEQLTKCEVFQKLKDLKDYGGVSLPEWVCTAFHTSGYDTQAIVQNNDSTEYGLFQINNKIWCKDDQNPHSRNICNISCDKFLDDDLTDDIACAKKILDKVGINYWLAHKALCSEKLDQWLCEKL [V109A], the denaturant m value was 2.22 kcal/mol/M, the “denaturant midpoint” value was determined as 2.99 M and the unfolding free energy amounted to 6.63 kcal/mol. Further, for the setting “transition: 3”, the denaturant m value was 1.64 kcal/mol/M and 0.58 kcal/mol/M; the “denaturant midpoint” value was 3.5 M and 1.54 M.
Take MMSFVSLLLVGILFHATQAEQLTKCEVFQKAKDLKDYGGVSLPEWVCTAFHTSGYDTQAIVQNNDSTEYGLFQINNKIWCKDDQNPHSRNICNISCDKFLDDDLTDDIVCAKKILDKVGINYWLAHKALCSEKLDQWLCEKL [L31A]: the denaturant m value was determined as 2.6 kcal/mol/M, the “denaturant midpoint” value is 1.21 M and the unfolding free energy came to 3.17 kcal/mol. Moreover, for the setting “transition: 3”, the “denaturant midpoint” value was 1.37 M and 0.62 M.
On to MMSFVSLLLVGILFHATQAEQLTKCEVFQKLKDLKDYGGVSLPEWVCTAFHTSGYDTQAIVQNNDSTEYGLFQINNKIWCKDDQNPHSRNICNISCDKFLDDDLTDDIVCAAKILDKVGINYWLAHKALCSEKLDQWLCEKL [K112A], for which the denaturant m value amounted to 2.12 kcal/mol/M, the “denaturant midpoint” value came to 1.83 M and the unfolding free energy stood at 3.88 kcal/mol. In addition, under “transition: 3”, the denaturant m value was 1.51 kcal/mol/M and 0.61 kcal/mol/M; the “denaturant midpoint” value is 2.07 M and 1.24 M.
For the variant MMSFVSLLLVGILFHATQAEQLTKCEVFQKLKDLKDYGGVSLPEWVCTAFHTSGYDTQAIVQNNDSTEYGLFQVNNKIWCKDDQNPHSRNICNISCDKFLDDDLTDDIVCAKKILDKVGINYWLAHKALCSEKLDQWLCEKL [I74V], for the setting “transition: 3”, the denaturant m value was 0.62 kcal/mol/M and 0.75 kcal/mol/M; the “denaturant midpoint” value was 2.38 M and 1.04 M; the unfolding free energy was 1.48 kcal/mol and 0.78 kcal/mol.
As for MMSFVSLLLVGILFHATQAEQLTKCEVFQKLKDLKDYGGVSLPEWVCTAFHTSGYDTQAIVQNNDSTEYGLFQINNKIWCKDDQNPHSRNICNISCDKFLDDDLTDDIVCAKKILDKVGINYWLAHKALCSEKLDQFLCEKL [W137F], the denaturant m value was 2.12 kcal/mol/M, the “denaturant midpoint” value was 2.49 M and the unfolding free energy was found to be 5.27 kcal/mol.
Consider MMSFVSLLLVGILFHATQAEQLTKCEVFQKLKDLKDYGGVSLPEWVCTAFHTSGYDTQAIVQNNDSTEYGLFQINNKIACKDDQNPHSRNICNISCDKFLDDDLTDDIVCAKKILDKVGINYWLAHKALCSEKLDQWLCEKL [W79A], for which the denaturant m value was 2.4 kcal/mol/M, the “denaturant midpoint” value came out at 1.59 M and the unfolding free energy turned out to be 3.82 kcal/mol. Further, where the note is “transition: 3”, the denaturant m value was 1.79 kcal/mol/M and 0.61 kcal/mol/M; the “denaturant midpoint” value was 1.58 M and 1.65 M; the unfolding free energy was 2.82 kcal/mol and 1 kcal/mol.
As to MMSFVSLLLVGILFHATQAEQLTKCEVFQKLKDLKDYGGVSLPEWVCTAFHTSGYDTQAIVQNNDSTEYGLFQINNKIWCKDDQNPHSRNICNISCDKFLDDDLTDDVVCAKKILDKVGINYWLAHKALCSEKLDQWLCEKL [I108V], the denaturant m value turned out to be 1.95 kcal/mol/M, the “denaturant midpoint” value is 2.33 M and the unfolding free energy turned out to be 4.54 kcal/mol. For the setting “transition: 3”, the denaturant m value was 1.3 kcal/mol/M and 0.65 kcal/mol/M; the “denaturant midpoint” value is 2.95 M and 1.09 M.
With MMSFVSLLLVGILFHATQAEQLTKCEVFQKLKDLKDYGGVSLPEWVCTAFHTSGYDTQAIVQNNDSTEYGLFQINNKIWCKDDQNPHSRNICNISCDKFLDDDLTNDIVCAKKILDKVGINYWLAHKALCSEKLDQWLCEKL [D106N], the denaturant m value amounted to 2.18 kcal/mol/M, the “denaturant midpoint” value came out at 2.07 M and the unfolding free energy came out at 4.51 kcal/mol. Moreover, where the note is “transition: 3”, the denaturant m value turned out to be 0.72 kcal/mol/M, the “denaturant midpoint” value turned out to be 1.49 M and the unfolding free energy amounted to 1.08 kcal/mol.
On to MMSFVSLLLVGILFHATQAEQLTKCEVFQKLKDLKDYGGVSLPEWVCTAFHTSGYDTQAIVQNNDSTEYGLFQINNKIWCKDDQNPHSRNICNISCDKFLDDDLTDDIVCAKKILDKVGINYWLAHKAACSEKLDQWLCEKL [L129A], for which the denaturant m value was determined as 2.29 kcal/mol/M, the “denaturant midpoint” value is 2.38 M and the unfolding free energy turned out to be 5.45 kcal/mol. For the same variant, the denaturant m value (transition: 3) was 1.69 kcal/mol/M and 0.6 kcal/mol/M.
With MMSFVSLLLVGILFHATQAEQLTKCEVFQKLKDLKDYGGVSLPEWACTAFHTSGYDTQAIVQNNDSTEYGLFQINNKIWCKDDQNPHSRNICNISCDKFLDDDLTDDIVCAKKILDKVGINYWLAHKALCSEKLDQWLCEKL [V46A], the denaturant m value is 2.7 kcal/mol/M, the “denaturant midpoint” value was 1.81 M and the unfolding free energy is 4.88 kcal/mol. Where the note is “transition: 3”, the denaturant m value is 1.9 kcal/mol/M and 0.8 kcal/mol/M; the “denaturant midpoint” value was 2.17 M and 0.94 M.
Regarding MMSFVSLLLVGILFHATQAEQLTKCEVFQKLKDLKDYGGVSLPEWVCTAFHTSGYDTQAIVQNNDSTEYGLFQINNKIWCKDDQNPHSRNICNISCDKFLDDDLTDDIVCAKKILDKVGINFWLAHKALCSEKLDQWLCEKL [Y122F], the denaturant m value was 1.82 kcal/mol/M, the “denaturant midpoint” value turned out to be 1.76 M and the unfolding free energy turned out to be 3.2 kcal/mol. In addition, under “transition: 3”, the denaturant m value was 1.3 kcal/mol/M and 0.52 kcal/mol/M; the “denaturant midpoint” value is 1.64 M and 2.07 M; the unfolding free energy is 2.13 kcal/mol and 1.08 kcal/mol.
As to MMSFVSLLLVGILFHATQAEQLTKCEVFQKLKDLKDYGGVSLPEWVCTAFHTSGYDTQAIVQNNDSTEYGLFQINNKIWCKDDQNPHSRNICNISCDKFLDDDLTDDIVCAKKIADKVGINYWLAHKALCSEKLDQWLCEKL [L115A], the denaturant m value stood at 1.72 kcal/mol/M, the “denaturant midpoint” value is 2 M and the unfolding free energy was 3.44 kcal/mol. Besides, the denaturant m value (transition: 3) is 1.09 kcal/mol/M and 0.63 kcal/mol/M.
With MMSFVSLLLVGILFHATQAEQLTKCEAFQKLKDLKDYGGVSLPEWVCTAFHTSGYDTQAIVQNNDSTEYGLFQINNKIWCKDDQNPHSRNICNISCDKFLDDDLTDDIVCAKKILDKVGINYWLAHKALCSEKLDQWLCEKL [V27A], the denaturant m value turned out to be 2.1 kcal/mol/M, the “denaturant midpoint” value is 2.26 M and the unfolding free energy was 4.74 kcal/mol. Besides, under “transition: 3”, the denaturant m value turned out to be 1.48 kcal/mol/M, the “denaturant midpoint” value was found to be 2.76 M and the unfolding free energy stood at 4.1 kcal/mol.
With MMSFVSLLLVGILFHATQAEQLTKCEVFQKLKDLKDYGGVSLPEWVCTAFHTSGYDTQAIVQNNDSTEYGLFQINNKIWCKDDQNPHSRNICNISCDKFLDDDLTDDIVCAKKVLDKVGINYWLAHKALCSEKLDQWLCEKL [I114V], the denaturant m value stood at 1.92 kcal/mol/M, the “denaturant midpoint” value is 1.92 M and the unfolding free energy was 3.69 kcal/mol. Where the note is “transition: 3”, the denaturant m value is 1.21 kcal/mol/M and 0.71 kcal/mol/M; the “denaturant midpoint” value is 2.46 M and 1 M.
